The text below walks through data of publication PMC10183829, “Shuffled ATG8 interacting motifs form an ancestral bridge between UFMylation and autophagy” (The EMBO Journal, 2023).

No end group written: not given here. TAMRA = 5(6)-carboxytetramethylrhodamine

B3: GABARAP (purified) (natural protein, human)
chain: FVYKEEHPFEKRRSEGEKIRKKYPDRVPVIVEKAPKARIGDLDKKKYLVPSDLTVGQFYFLIRKRIHLRAEDALFFFVNNVIPPTSATMGQLYQEHHEEDFFLYIAYSDESVYG
notes: GABARAP, Homo sapiens; 15N-labelled in the NMR titration; also called HIS6-3C-GABARAP; HIS6-GABARAP; source: E. coli Rosetta2 (DE3) pLysS, purified (HisTrap, ion exchange, SEC)
B4: HsC53^cAIM (purified, ITC) (natural protein)
chain: MEDHQHVPIDIQTSKLLDWLVDRRHCSLKWQSLVLTIREKINAAIQDMPESEEIAQLLSGSYIHYFHCLRILDLLKGTEASTKNIFGRYSSQRMKDWQEIIALYEKDNTYLVELSSLLVRNVNYEIPSLKKQIAKCQQLQQEYSRKEEECQAGAAEMREQFYHSCKQYGITGENVRGELLALVKDLPSQLAEIGAAAQQSLGEAIDVYQASVGFVCESPTEQVLPMLRFVQKRGNSTVYEWRTGTEPSVVERPHLEELPEQVAEDAWDGIDFGVEAVSEGTDSGISAEAAGWDGIIFPESDSKDPGGDGWDGIDDAVALQITVLEAGTQAPEGVARGPDALTLLEYTETRNQFLDELMELEIFLAQRAVELSEEADVLSVSQFQLAPAILQGQTKEKMVTMVSVLEDLIGKLTSLQLQHLFMILASPRYVDRVTEFLQQKLKQSQLLALKKELMVQKQQEALEEQAALEPKLDLLLEKTKELQKLIEADISKRYSGRPVNLMGTSL
notes: source: E. coli Rosetta2 (DE3) pLysS, purified

Common to all, as to conditions: both partners purified
One assay concerns the target T1, mCh-HsC53 (human, UniProt Q96JB5 1-506).
T1 construct: also called mCherry-tagged human C53; not shown: mCherry, N-terminal, kept
T1 sequence (looked up): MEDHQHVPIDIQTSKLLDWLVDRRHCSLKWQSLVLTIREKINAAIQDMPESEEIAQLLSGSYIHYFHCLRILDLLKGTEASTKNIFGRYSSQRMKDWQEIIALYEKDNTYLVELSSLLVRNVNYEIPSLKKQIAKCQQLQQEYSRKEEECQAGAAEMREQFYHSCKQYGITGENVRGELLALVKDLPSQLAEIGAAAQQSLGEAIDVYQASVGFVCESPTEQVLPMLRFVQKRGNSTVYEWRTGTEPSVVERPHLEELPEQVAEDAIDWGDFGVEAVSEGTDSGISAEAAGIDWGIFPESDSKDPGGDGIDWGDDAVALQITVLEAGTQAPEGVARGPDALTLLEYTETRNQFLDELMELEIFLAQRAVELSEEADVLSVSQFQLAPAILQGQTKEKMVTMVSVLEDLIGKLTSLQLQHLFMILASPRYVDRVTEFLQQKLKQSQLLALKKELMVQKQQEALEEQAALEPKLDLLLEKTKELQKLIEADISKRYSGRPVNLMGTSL
As to the kind of experiment: microscopy-based on-bead protein-protein interaction assay.

The target of a further assay is cAIM wt peptide. The description is as above.
In assay [1] the target is B4. Description: ITC.
The target of the assay “GABARAP (purified)” is B3. Description: ITC. For orientation: ITC needs no label: the signal is the heat of the interaction.
For another assay, the target named is T2, HsUFM1 (purified) (human, UniProt P61960 1-85).
T2 construct: UFM1, Homo sapiens; 15N-labelled in the NMR titration; also called human UFM1; source: E. coli Rosetta2 (DE3) pLysS, purified (HisTrap, ion exchange, SEC)
T2 sequence (P61960 whole entry): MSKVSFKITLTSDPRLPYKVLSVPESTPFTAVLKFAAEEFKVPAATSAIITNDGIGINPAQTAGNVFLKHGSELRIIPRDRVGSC
As to the kind of experiment: native MS; HsUFM1 (5 μM) with peptide (25 μM); ammonium acetate, nanoelectrospray, Synapt G2Si.

In a further assay the target is T3, AtUFM1 (purified) (Arabidopsis thaliana).
T3 construct: UFM1, Arabidopsis thaliana; 15N-labelled or unlabelled in NMR; also called HIS6-3C-AtUFM1; HIS6-AtUFM1; source: E. coli Rosetta2 (DE3) pLysS, purified (HisTrap, ion exchange, SEC)
As to the kind of experiment: fluorescence polarisation; fluorescence anisotropy; ATG8A or AtUFM1 (250 nM-320 μM) added to 50 nM TAMRA-labeled peptide, 10 min at 4°C.

The target in the next assay is T4, ATG8A (purified) (Arabidopsis thaliana, UniProt Q8LEM4 1-117).
T4 construct: ATG8A, Arabidopsis thaliana; 3C site after the His6 tag; 15N-labelled or unlabelled in NMR; also called HIS6-3C-ATG8A; source: E. coli Rosetta2 (DE3) pLysS, purified (HisTrap, ion exchange, SEC)
T4 sequence (looked up): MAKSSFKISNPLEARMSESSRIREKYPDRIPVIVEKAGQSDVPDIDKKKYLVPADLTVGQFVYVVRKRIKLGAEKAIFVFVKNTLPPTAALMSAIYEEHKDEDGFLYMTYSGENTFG
The assay is described as above.

B1: GST-GABARAP (natural protein, human, UniProt O95166 1-117, looked up)
chain: MKFVYKEEHPFEKRRSEGEKIRKKYPDRVPVIVEKAPKARIGDLDKKKYLVPSDLTVGQFYFLIRKRIHLRAEDALFFFVNNVIPPTSATMGQLYQEHHEEDFFLYIAYSDESVYGL
notes: also called human ATG8 isoform GABARAP; human ATG8; not shown: GST, N-terminal, kept
As for B1, in the assay with mCh-HsC53, the binding result is listed as “binds”.

B2: GST-ATG8A (natural protein)
chain: MAKSSFKISNPLEARMSESSRIREKYPDRIPVIVEKAGQSDVPDIDKKKYLVPADLTVGQFVYVVRKRIKLGAEKAIFVFVKNTLPPTAALMSAIYEEHKDEDGFLYMTYSGENTFG
notes: also called Arabidopsis ATG8A; not shown: GST, N-terminal, kept
B2: the binding result in the assay with cAIM wt peptide is reported as “binds”.
The term Kd denotes the equilibrium constant for the complex coming apart. Lower therefore signals higher affinity. Turning to B3, the dissociation constant Kd in assay [1] was determined as 11.2 µM.
For the molecule B4, the “fold increase in affinity against the C53 wild type” value in the assay with GABARAP (purified) was 1.8 fold.

B5: AtUBA5 LIR peptide (peptide)
peptide: GPLHDDNEWNISVVDD
notes: LIR/UFIM peptide of UBA5; also called AtUBA5 LIR/UFIM peptide; UBA5 LIR/UFIM; source: synthetic peptide (synthetized in house)
One may read the stoichiometry N as a count of units in the complex or per binding partner. With B5, in the assay with HsUFM1 (purified), the “stoichiometry N” value worked out at 1.
{TAMRA}-AADSIDWDITVETPEIDWDVSMVEEV [sAIM1,2 peptide (AtC53 IDR-derived peptide that covers both sAIM1 and sAIM2)]: the Kd was 148 µM in the assay with AtUFM1 (purified) and 26.5 µM with ATG8A (purified).
